# Laboratory results as given in US8173771B2, “Humanin receptor or humanin-like polypeptide receptor” (Keio Univeristy, priority 2005, dated 2012).
# B1: G-CSF: human G-CSF, ligand stimulating G-CSFR/gp130 chimera proteins (protein, UniProt P09919 31-207, looked up)
# Granulocyte …: TPLGPASSLPQSFLLKCLEQVRKIQGDGAALQEKLVSECATYKLCHPEELVLLGHSLGIPWAPLSSCPSQALQLAGCLSQLHSGLFLYQGLLQALEGISPELGPTLDTLQLDVADFATTIWQQMEELGMAPALQPTQGAMPAFASAFQRRAGGVLVASHLQSFLEVSYRVLRHLAQP
# Tests used:
# [1] = test system: G-CSFR/gp130 chimera proteins; assay: G-CSF stimulation of G-CSFR/gp130 chimera proteins in F11 cells, cell mortality by Trypan blue exclusion; format: cell-based, human; details: 100 nM
# Method: (§1) B) F11 cells were transfected with 0.5 μg of the pcDNA3 vector or pcDNA3-APP in association with 0.5 μg of the pEFBos vector or the pEFBos vectors encoding the extracellular domain of the human G-CSF receptor fused to the full transmembrane domain and a C-terminally truncated intracytoplasmic domain of gp130 (named “G-CSFR/gp130”). G-CSFR/gp130 (277) contains the full intracytoplasmic domain of gp130 corresponding to amino acids 1-277, while G-CSFR/gp130 (25), (68), and (133) contain the intracytoplasmic domains corresponding to amino acids 1-25, 1-68, and 1-133, respectively. At 24 hr after transfection, the cells were added with indicated amounts of human G-CSF. Cell mortality was determined by Trypan blue exclusion assay at 72 hr after transfection. The results of immunoblot analysis of the expression of […] are shown in photos.
# (§2) C) Instead of the pcDNA3-V6421-APP vector, pcDNA3-K595 N/M596L-APP (NL-APP), M146L-PS1 and N141-I-PS2 vectors were used to do the same experiments as in FIG. 2A. The results of immunoblot analysis of the expression of NL-APP, M146L-PS1 and N141-I-PS2 are shown in photos.
# (§3) D) F11 cells were transfected with 0.5 μg of the pEFBos vector or pEF-G85R-SOD1 in association with 0.5 μg of the pEFBos vector or each pEFBos vector encoding G-CSFR/gp130 (277) or G-CSFR/gp130 (25). At 24 hr after transfection, the cells were added with indicated amounts of human G-CSF. Cell mortality was determined by Trypan blue exclusion assay at 72 hr after transfection. The results of the expression of G85R-SOD1, which were confirmed by the immunoblot analysis, are shown in photos.
# (§4) Neurohybrid F11 cells and pcDNA3 vectors encoding V642I-APP, K595N/M596L-APP (NL-APP), M146L-PS1, and N141I-PS2 cDNA were prepared as already described (Hashimoto et al, 2000, 2001a, 2003). pCAG-human gp130 and pCAG-human gp130 ED (the extracellular domain of human gp130) were prepared as described (Kumanogoh et al., 1997). pcDNA3 vectors encoding the extracellular domain of the G-CSF receptor fused to the full-length transmembrane domain and various portions of the intracellular domains of human gp130, were prepared as described (Fukada et al, 1996). The intracellular domain of gp130 was C-terminally truncated. A chimera protein named G-277 contained a 277 amino acid-long full intracellular domain of gp130 (SEQ ID NO:35), while G-195, G-133, G-68, and G-25 contained the amino acids 1-195 (SEQ ID NO:36), 1-133 (SEQ ID NO:37), 1-68 (SEQ ID NO:38), and 1-25 (SEQ ID NO:39) intracellular portions, respectively. C-terminally myc-tagged human WSX-1 and myc-tagged mouse CREME9 cDNAs were amplified from human and mouse embryo cDNA (BioChain) by PCR using sets of sense primers and antisense primers: 5′-[…]-3′ (SEQ ID NO:3) and 5′-[…]-3′ (SEQ ID NO:4) for human WSX-1; 5′-[…]-3′ (SEQ ID NO:5); and 5′-[…]-3′ (SEQ ID NO:6) for mouse CREME9. Plasmids encoding C-terminally V5-tagged human CNTF-R (V %-CNTF-R) and rat IL-6R (pUCM18-rat IL-6R) were purchased from Invitrogen and American Culture Collection, respectively. A pEFBos vector comprising familial ALS (FALS) gene G85R-SOD1 was kindly provided by Dr. Shoji Tsuji. Cosmid of human wild […] was constructed by inserting a full-length gp130 into a SwaI site of pAxCAwt (TaKaRa).
# (§5) The transfection procedures were as described (Hashimoto et al, 2000, 2001a, 2003). F11 cells, seeded at 7×10^4/well in 6-well dishes, were transfected with indicated vectors. Transfection efficiency in these protocols has been determined to be invariably around 70%. At 72 hrs after transfection, the Trypan blue exclusion assay and LDH assay were performed as a cell-death assay and the WST-8 assay was performed as cell-viability assays (Hashimoto et al, 2000, 2001a b, 2003). HN was added to the culture medium usually at 5 hrs after transfection, but in some cases at 24 hrs after transfection.
# [2] = target: T1, G-CSFR/gp130 chimera proteins (Homo sapiens, UniProt P40189+Q99062); assay: as above; format: cell-based; details: 100 nM; G-133 expressed
# T1 construct: the extracellular domain of the human G-CSF receptor fused to the full transmembrane domain; expressed in transfected cells; host or cells: F11 cells
# T1 sequence (Q99062+P40189 with tags, fused parts or gaps): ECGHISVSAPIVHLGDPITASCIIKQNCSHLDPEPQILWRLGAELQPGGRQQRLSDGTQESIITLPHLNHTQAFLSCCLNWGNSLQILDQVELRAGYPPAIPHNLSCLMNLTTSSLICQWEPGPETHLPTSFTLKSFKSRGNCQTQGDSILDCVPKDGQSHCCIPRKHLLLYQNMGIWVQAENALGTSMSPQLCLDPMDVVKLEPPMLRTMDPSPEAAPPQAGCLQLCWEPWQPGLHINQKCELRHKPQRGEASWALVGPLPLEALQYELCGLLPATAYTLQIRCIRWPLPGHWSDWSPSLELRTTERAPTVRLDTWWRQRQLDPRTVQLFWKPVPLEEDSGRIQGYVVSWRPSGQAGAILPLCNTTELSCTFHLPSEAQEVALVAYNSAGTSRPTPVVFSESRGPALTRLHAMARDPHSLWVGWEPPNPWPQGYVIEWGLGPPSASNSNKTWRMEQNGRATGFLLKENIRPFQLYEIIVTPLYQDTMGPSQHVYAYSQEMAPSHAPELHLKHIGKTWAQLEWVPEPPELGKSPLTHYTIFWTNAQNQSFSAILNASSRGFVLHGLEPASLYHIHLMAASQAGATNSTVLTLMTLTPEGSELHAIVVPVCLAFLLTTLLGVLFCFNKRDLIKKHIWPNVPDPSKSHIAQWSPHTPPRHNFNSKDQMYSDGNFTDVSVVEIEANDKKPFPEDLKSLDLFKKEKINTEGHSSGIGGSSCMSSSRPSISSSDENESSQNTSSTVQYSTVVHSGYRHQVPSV
# Method: as §1, §2, §3, §4, §5
molecule,measurement,setting,value
B1,prevention of neuronal cell death induced by mutant Cu/Zn-superoxide dismutase (G85R-SOD1),[1],did not prevent
same,prevention of neuronal cell death induced by V642I-APP,[1]; G-25 or G-68 expressed,did not prevent
same,prevention of neuronal cell death induced by V642I-APP,[2],partially prevented
